Where no end group is shown, it is not given here. [ ]: non-standard residue; d: D form. Aib = CC(C)(N)C(=O)O
How the values were obtained:
[1] = biological target: human GLP-1 receptor (GLP-1R) (human, UniProt P43220 24-463); test: cell-based or functional assay
[2] = biological target: human glucagon receptor (GCGR) (human, UniProt P47871 26-477); test: cell-based or functional assay

Chain of human GLP-1 receptor (GLP-1R) (P43220 24-463): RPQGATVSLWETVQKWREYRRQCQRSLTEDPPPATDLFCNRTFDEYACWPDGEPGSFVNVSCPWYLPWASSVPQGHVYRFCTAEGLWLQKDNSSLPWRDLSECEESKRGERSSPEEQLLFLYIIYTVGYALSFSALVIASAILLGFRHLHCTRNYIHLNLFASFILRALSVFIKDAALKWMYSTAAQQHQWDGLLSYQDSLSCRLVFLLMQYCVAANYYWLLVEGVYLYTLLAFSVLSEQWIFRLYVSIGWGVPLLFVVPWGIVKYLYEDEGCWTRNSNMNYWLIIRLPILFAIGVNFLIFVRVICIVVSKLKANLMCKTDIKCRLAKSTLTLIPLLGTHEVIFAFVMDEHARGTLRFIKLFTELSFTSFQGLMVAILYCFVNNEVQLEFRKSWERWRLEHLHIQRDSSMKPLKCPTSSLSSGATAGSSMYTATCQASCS

Row | Binder | hGLP1 pEC50 (cAMP) [1] | hGCGR pEC50 (cAMP) [2]
1 | YSHGTFTSDYSKYLD[Aib]KRAQEFV[Aib]WLEDEPSSKGAPPPS-OH (N-terminus assumed; SMILES CC(C)C[C@H](NC(=O)[C@H](Cc1ccc(O)cc1)NC(=O)[C@H](CCCCN)NC(=O)[C@H](CO)NC(=O)[C@H](Cc1ccc(O)cc1)NC(=O)[C@H](CC(=O)O)NC(=O)[C@H](CO)NC(=O)[C@@H](NC(=O)[C@H](Cc1ccccc1)NC(=O)[C@@H](NC(=O)CNC(=O)[C@H](Cc1c[nH]cn1)NC(=O)[C@H](CO)NC(=O)[C@@H](N)Cc1ccc(O)cc1)[C@@H](C)O)[C@@H](C)O)C(=O)N[C@@H](CC(=O)O)C(=O)NC(C)(C)C(=O)N[C@@H](CCCCN)C(=O)N[C@@H](CCCNC(=N)N)C(=O)N[C@@H](C)C(=O)N[C@@H](CCC(N)=O)C(=O)N[C@@H](CCC(=O)O)C(=O)N[C@@H](Cc1ccccc1)C(=O)N[C@H](C(=O)NC(C)(C)C(=O)N[C@@H](Cc1c[nH]c2ccccc12)C(=O)N[C@@H](CC(C)C)C(=O)N[C@@H](CCC(=O)O)C(=O)N[C@@H](CC(=O)O)C(=O)N[C@@H](CCC(=O)O)C(=O)N1CCC[C@H]1C(=O)N[C@@H](CO)C(=O)N[C@@H](CO)C(=O)N[C@@H](CCCCN)C(=O)NCC(=O)N[C@@H](C)C(=O)N1CCC[C@H]1C(=O)N1CCC[C@H]1C(=O)N1CCC[C@H]1C(=O)N[C@@H](CO)C(=O)O)C(C)C) [Compound A24] | < 9 pEC50 | 12.2 pEC50
2 | YSHGTFTSDYSKYLD[Aib]KRAQEFV[Aib]WLEDEPSSGEPPPS-OH (N-terminus assumed; SMILES CC(C)C[C@H](NC(=O)[C@H](Cc1ccc(O)cc1)NC(=O)[C@H](CCCCN)NC(=O)[C@H](CO)NC(=O)[C@H](Cc1ccc(O)cc1)NC(=O)[C@H](CC(=O)O)NC(=O)[C@H](CO)NC(=O)[C@@H](NC(=O)[C@H](Cc1ccccc1)NC(=O)[C@@H](NC(=O)CNC(=O)[C@H](Cc1c[nH]cn1)NC(=O)[C@H](CO)NC(=O)[C@@H](N)Cc1ccc(O)cc1)[C@@H](C)O)[C@@H](C)O)C(=O)N[C@@H](CC(=O)O)C(=O)NC(C)(C)C(=O)N[C@@H](CCCCN)C(=O)N[C@@H](CCCNC(=N)N)C(=O)N[C@@H](C)C(=O)N[C@@H](CCC(N)=O)C(=O)N[C@@H](CCC(=O)O)C(=O)N[C@@H](Cc1ccccc1)C(=O)N[C@H](C(=O)NC(C)(C)C(=O)N[C@@H](Cc1c[nH]c2ccccc12)C(=O)N[C@@H](CC(C)C)C(=O)N[C@@H](CCC(=O)O)C(=O)N[C@@H](CC(=O)O)C(=O)N[C@@H](CCC(=O)O)C(=O)N1CCC[C@H]1C(=O)N[C@@H](CO)C(=O)N[C@@H](CO)C(=O)NCC(=O)N[C@@H](CCC(=O)O)C(=O)N1CCC[C@H]1C(=O)N1CCC[C@H]1C(=O)N1CCC[C@H]1C(=O)N[C@@H](CO)C(=O)O)C(C)C) [Compound A21] | < 9 pEC50 | 11.1 pEC50
3 | YSHGTFTSDYSKWLD[Aib]ARAQEFV[Aib]WLEDEPSSGAPPPS-OH (N-terminus assumed; SMILES CC(C)C[C@H](NC(=O)[C@H](Cc1c[nH]c2ccccc12)NC(=O)[C@H](CCCCN)NC(=O)[C@H](CO)NC(=O)[C@H](Cc1ccc(O)cc1)NC(=O)[C@H](CC(=O)O)NC(=O)[C@H](CO)NC(=O)[C@@H](NC(=O)[C@H](Cc1ccccc1)NC(=O)[C@@H](NC(=O)CNC(=O)[C@H](Cc1c[nH]cn1)NC(=O)[C@H](CO)NC(=O)[C@@H](N)Cc1ccc(O)cc1)[C@@H](C)O)[C@@H](C)O)C(=O)N[C@@H](CC(=O)O)C(=O)NC(C)(C)C(=O)N[C@@H](C)C(=O)N[C@@H](CCCNC(=N)N)C(=O)N[C@@H](C)C(=O)N[C@@H](CCC(N)=O)C(=O)N[C@@H](CCC(=O)O)C(=O)N[C@@H](Cc1ccccc1)C(=O)N[C@H](C(=O)NC(C)(C)C(=O)N[C@@H](Cc1c[nH]c2ccccc12)C(=O)N[C@@H](CC(C)C)C(=O)N[C@@H](CCC(=O)O)C(=O)N[C@@H](CC(=O)O)C(=O)N[C@@H](CCC(=O)O)C(=O)N1CCC[C@H]1C(=O)N[C@@H](CO)C(=O)N[C@@H](CO)C(=O)NCC(=O)N[C@@H](C)C(=O)N1CCC[C@H]1C(=O)N1CCC[C@H]1C(=O)N1CCC[C@H]1C(=O)N[C@@H](CO)C(=O)O)C(C)C) [Compound A18] | < 9 pEC50 | 12.4 pEC50
4 | YSHGTFTSDYSKWLD[Aib]SRAQEFV[Aib]WLEDEPSSGAPPPS-OH (N-terminus assumed; SMILES CC(C)C[C@H](NC(=O)[C@H](Cc1c[nH]c2ccccc12)NC(=O)[C@H](CCCCN)NC(=O)[C@H](CO)NC(=O)[C@H](Cc1ccc(O)cc1)NC(=O)[C@H](CC(=O)O)NC(=O)[C@H](CO)NC(=O)[C@@H](NC(=O)[C@H](Cc1ccccc1)NC(=O)[C@@H](NC(=O)CNC(=O)[C@H](Cc1c[nH]cn1)NC(=O)[C@H](CO)NC(=O)[C@@H](N)Cc1ccc(O)cc1)[C@@H](C)O)[C@@H](C)O)C(=O)N[C@@H](CC(=O)O)C(=O)NC(C)(C)C(=O)N[C@@H](CO)C(=O)N[C@@H](CCCNC(=N)N)C(=O)N[C@@H](C)C(=O)N[C@@H](CCC(N)=O)C(=O)N[C@@H](CCC(=O)O)C(=O)N[C@@H](Cc1ccccc1)C(=O)N[C@H](C(=O)NC(C)(C)C(=O)N[C@@H](Cc1c[nH]c2ccccc12)C(=O)N[C@@H](CC(C)C)C(=O)N[C@@H](CCC(=O)O)C(=O)N[C@@H](CC(=O)O)C(=O)N[C@@H](CCC(=O)O)C(=O)N1CCC[C@H]1C(=O)N[C@@H](CO)C(=O)N[C@@H](CO)C(=O)NCC(=O)N[C@@H](C)C(=O)N1CCC[C@H]1C(=O)N1CCC[C@H]1C(=O)N1CCC[C@H]1C(=O)N[C@@H](CO)C(=O)O)C(C)C) [Compound A19] | < 9 pEC50 | 11 pEC50
5 | YSHGTFTSDYSKYLD[Aib]KRAQEFV[Aib]WLEDEPSSGKPPPS-OH (N-terminus assumed; SMILES CC(C)C[C@H](NC(=O)[C@H](Cc1ccc(O)cc1)NC(=O)[C@H](CCCCN)NC(=O)[C@H](CO)NC(=O)[C@H](Cc1ccc(O)cc1)NC(=O)[C@H](CC(=O)O)NC(=O)[C@H](CO)NC(=O)[C@@H](NC(=O)[C@H](Cc1ccccc1)NC(=O)[C@@H](NC(=O)CNC(=O)[C@H](Cc1c[nH]cn1)NC(=O)[C@H](CO)NC(=O)[C@@H](N)Cc1ccc(O)cc1)[C@@H](C)O)[C@@H](C)O)C(=O)N[C@@H](CC(=O)O)C(=O)NC(C)(C)C(=O)N[C@@H](CCCCN)C(=O)N[C@@H](CCCNC(=N)N)C(=O)N[C@@H](C)C(=O)N[C@@H](CCC(N)=O)C(=O)N[C@@H](CCC(=O)O)C(=O)N[C@@H](Cc1ccccc1)C(=O)N[C@H](C(=O)NC(C)(C)C(=O)N[C@@H](Cc1c[nH]c2ccccc12)C(=O)N[C@@H](CC(C)C)C(=O)N[C@@H](CCC(=O)O)C(=O)N[C@@H](CC(=O)O)C(=O)N[C@@H](CCC(=O)O)C(=O)N1CCC[C@H]1C(=O)N[C@@H](CO)C(=O)N[C@@H](CO)C(=O)NCC(=O)N[C@@H](CCCCN)C(=O)N1CCC[C@H]1C(=O)N1CCC[C@H]1C(=O)N1CCC[C@H]1C(=O)N[C@@H](CO)C(=O)O)C(C)C) [Compound A20] | < 9 pEC50 | 13.3 pEC50
6 | YSHGTFTSDYSKYLD[Aib]KRAQEFV[Aib]WLEDEPSSKAPPPS-OH (N-terminus assumed; SMILES CC(C)C[C@H](NC(=O)[C@H](Cc1ccc(O)cc1)NC(=O)[C@H](CCCCN)NC(=O)[C@H](CO)NC(=O)[C@H](Cc1ccc(O)cc1)NC(=O)[C@H](CC(=O)O)NC(=O)[C@H](CO)NC(=O)[C@@H](NC(=O)[C@H](Cc1ccccc1)NC(=O)[C@@H](NC(=O)CNC(=O)[C@H](Cc1c[nH]cn1)NC(=O)[C@H](CO)NC(=O)[C@@H](N)Cc1ccc(O)cc1)[C@@H](C)O)[C@@H](C)O)C(=O)N[C@@H](CC(=O)O)C(=O)NC(C)(C)C(=O)N[C@@H](CCCCN)C(=O)N[C@@H](CCCNC(=N)N)C(=O)N[C@@H](C)C(=O)N[C@@H](CCC(N)=O)C(=O)N[C@@H](CCC(=O)O)C(=O)N[C@@H](Cc1ccccc1)C(=O)N[C@H](C(=O)NC(C)(C)C(=O)N[C@@H](Cc1c[nH]c2ccccc12)C(=O)N[C@@H](CC(C)C)C(=O)N[C@@H](CCC(=O)O)C(=O)N[C@@H](CC(=O)O)C(=O)N[C@@H](CCC(=O)O)C(=O)N1CCC[C@H]1C(=O)N[C@@H](CO)C(=O)N[C@@H](CO)C(=O)N[C@@H](CCCCN)C(=O)N[C@@H](C)C(=O)N1CCC[C@H]1C(=O)N1CCC[C@H]1C(=O)N1CCC[C@H]1C(=O)N[C@@H](CO)C(=O)O)C(C)C) [Compound A23] | < 9 pEC50 | 11.2 pEC50
7 | YSHGTFTSDYSKYLD[Aib]KRAQEFV[Aib]WLEDEPSSGSPPPS-OH (N-terminus assumed; SMILES CC(C)C[C@H](NC(=O)[C@H](Cc1ccc(O)cc1)NC(=O)[C@H](CCCCN)NC(=O)[C@H](CO)NC(=O)[C@H](Cc1ccc(O)cc1)NC(=O)[C@H](CC(=O)O)NC(=O)[C@H](CO)NC(=O)[C@@H](NC(=O)[C@H](Cc1ccccc1)NC(=O)[C@@H](NC(=O)CNC(=O)[C@H](Cc1c[nH]cn1)NC(=O)[C@H](CO)NC(=O)[C@@H](N)Cc1ccc(O)cc1)[C@@H](C)O)[C@@H](C)O)C(=O)N[C@@H](CC(=O)O)C(=O)NC(C)(C)C(=O)N[C@@H](CCCCN)C(=O)N[C@@H](CCCNC(=N)N)C(=O)N[C@@H](C)C(=O)N[C@@H](CCC(N)=O)C(=O)N[C@@H](CCC(=O)O)C(=O)N[C@@H](Cc1ccccc1)C(=O)N[C@H](C(=O)NC(C)(C)C(=O)N[C@@H](Cc1c[nH]c2ccccc12)C(=O)N[C@@H](CC(C)C)C(=O)N[C@@H](CCC(=O)O)C(=O)N[C@@H](CC(=O)O)C(=O)N[C@@H](CCC(=O)O)C(=O)N1CCC[C@H]1C(=O)N[C@@H](CO)C(=O)N[C@@H](CO)C(=O)NCC(=O)N[C@@H](CO)C(=O)N1CCC[C@H]1C(=O)N1CCC[C@H]1C(=O)N1CCC[C@H]1C(=O)N[C@@H](CO)C(=O)O)C(C)C) [Compound A22] | < 9 pEC50 | 11 pEC50
